Results: patent US12295987B2, “Method of using a GIP/GLP1 co-agonist for diabetes” (Eli Lilly and Company, priority 2018, dated 2025)

Target: T1, human gastric inhibitory peptide receptor (hGIPR) (Homo sapiens, UniProt P48546)
T1 construct: expressed in transfected cells; host or cells: HEK293
T1 sequence (P48546 22-466): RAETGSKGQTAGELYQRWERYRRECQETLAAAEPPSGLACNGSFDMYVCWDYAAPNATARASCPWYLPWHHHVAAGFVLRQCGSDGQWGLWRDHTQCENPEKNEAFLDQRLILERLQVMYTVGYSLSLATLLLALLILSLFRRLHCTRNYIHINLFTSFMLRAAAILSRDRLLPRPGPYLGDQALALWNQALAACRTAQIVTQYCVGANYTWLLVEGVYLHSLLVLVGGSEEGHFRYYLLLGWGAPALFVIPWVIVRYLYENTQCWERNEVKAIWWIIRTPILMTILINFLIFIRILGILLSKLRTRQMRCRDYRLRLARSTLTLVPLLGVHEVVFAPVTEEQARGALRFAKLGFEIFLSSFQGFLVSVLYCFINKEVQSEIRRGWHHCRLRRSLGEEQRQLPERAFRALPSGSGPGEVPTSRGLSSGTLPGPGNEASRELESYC
Test: cAMP pharmacological functional assay in presence of 0.1% casein, hGIPR
Type: cell-based
Details: ratio of hGIPR to hGLP1R cAMP EC50 ratios

Compared with “Y-Aib-EGT-αMeF(2F)-TSDYSI-αMeL-LDEK((2-[2-(2-Amino-ethoxy)-ethoxy]-acetyl)2-(γGlu)-CO—(CH2)18—CO2H)AQ-Aib-EFIVYLIEGGPSSGAPPPS-NH2 (YXEGTXTSDYSIXLDEKAQXEFIVYLIEGGPSSGAPPPS; Aib, αMeF(2F), αMeL; acylated lysine C20 diacid; amide; (2)..(2) Xaa at position 2 is Aib; (6)..(6) Xaa at position 6 is alpha-methyl-Phe(2F); (13)..(13) Xaa at position 13 is alpha-methyl-Leu; MOD_RES (17)..(17) Lys at position 17 is chemically modified by conjugation of the epsilon-amino group of the Lys side chain with (2-[2-(2-amino-ethoxy)-ethoxy]-acetyl)2-(gamma-Glu)-CO-(CH2)18- CO2H; (20)..(20) Xaa at position 20 is Aib; MOD_RES (39)..(39) Ser a) [Peptide 149]”, “Y-Aib-EGT-αMeF(2F)-TSDYSI-αMeL-LDEK((2-[2-(2-Amino-ethoxy)-ethoxy]-acetyl)2-(εK)-CO—(CH2)18—CO2H)AQ-Aib-EFI-(D-Glu)-YLIEGGPSSGAPPPS-NH2 (YXEGTXTSDYSIXLDEKAQXEFIXYLIEGGPSSGAPPPS; Aib, αMeF(2F), αMeL, D-Glu; εK-lipidated K; amide; (2)..(2) Xaa at position 2 is Aib; (6)..(6) Xaa at position 6 is alpha-methyl-Phe(2F); (13)..(13) Xaa at position 13 is alpha-methyl-Leu; MOD_RES (17)..(17) Lys at position 17 is chemically modified by conjugation of the epsilon-amino group of the Lys side chain with (2-[2-(2-amino-ethoxy)-ethoxy]-acetyl)2-(epsilon-Lys)-CO-(CH2)18- CO2H; (20)..(20) Xaa at position 20 is Aib; (24)..(24) Xaa at posi) [Peptide 216]” is lower in “[hGIPR/hGLP1R] EC50 Ratio” value: 3.76 for the first, 3.75 for the second.

First: Y-Aib-EGT-αMeF(2F)-TSDYSI-αMeL-LDEK((2-[2-(2-Amino-ethoxy)-ethoxy]-acetyl)2-CO—(CH2)16—CO2H)AQ-Aib-EFI-(D-Glu)-YLIEGGPSSGAPPPS-NH2 (YXEGTXTSDYSIXLDEKAQXEFIXYLIEGGPSSGAPPPS; Aib, αMeF(2F), αMeL, D-Glu; lipidated K; amide; (2)..(2) Xaa at position 2 is Aib; (6)..(6) Xaa at position 6 is alpha-methyl-Phe(2F); (13)..(13) Xaa at position 13 is alpha-methyl-Leu; MOD_RES (17)..(17) Lys at position 17 is chemically modified by conjugation of the epsilon-amino group of the Lys side chain with (2-[2-(2-amino-ethoxy)-ethoxy]-acetyl)2-CO-(CH2)16-CO2H; (20)..(20) Xaa at position 20 is Aib; (24)..(24) Xaa at position 24 is D-Gl) [Peptide 214]
Second: Y-Aib-EGT-αMeF(2F)-TSDYSI-αMeL-LDEK((2-[2-(2-Amino-ethoxy)-ethoxy]-acetyl)2-CO—(CH2)18—CO2H)AQ-Aib-EFI-(D-Glu)-YLIEGGPSSGAPPPS-NH2 (YXEGTXTSDYSIXLDEKAQXEFIXYLIEGGPSSGAPPPS; Aib, αMeF(2F), αMeL, D-Glu; lipidated K; amide; (2)..(2) Xaa at position 2 is Aib; (6)..(6) Xaa at position 6 is alpha-methyl-Phe(2F); (13)..(13) Xaa at position 13 is alpha-methyl-Leu; MOD_RES (17)..(17) Lys at position 17 is chemically modified by conjugation of the epsilon-amino group of the Lys side chain with (2-[2-(2-amino-ethoxy)-ethoxy]-acetyl)2-CO-(CH2)18-CO2H; (20)..(20) Xaa at position 20 is Aib; (24)..(24) Xaa at position 24 is D-Gl) [Peptide 215]
The “[hGIPR/hGLP1R] EC50 Ratio” value of the first is lower: 3.98 for the first, 4.34 for the second.

First: Y-Aib-EGT-αMeF(2F)-TSDYSI-αMeL-LDHK((2-[2-(2-Amino-ethoxy)-ethoxy]-acetyl)2-(γGlu)-CO—(CH2)18—CO2H)AQ-Aib-EFI-(D-Glu)-YLIEGGPSSGAPPPS-NH2 (YXEGTXTSDYSIXLDHKAQXEFIXYLIEGGPSSGAPPPS; Aib, αMe residues, lipidated Lys, D-Glu, C-terminal amide; (2)..(2) Xaa at position 2 is Aib; (6)..(6) Xaa at position 6 is alpha-methyl-Phe(2F); (13)..(13) Xaa at position 13 is alpha-methyl-Leu; MOD_RES (17)..(17) Lys at position 17 is chemically modified by conjugation of the epsilon-amino group of the Lys side chain with (2-[2-(2-amino-ethoxy)-ethoxy]-acetyl)2-(gamma-Glu)-CO-(CH2)18- CO2H; (20)..(20) Xaa at position 20 is Aib; (24)..(24) Xaa at positi) [Peptide 230]
Second: Y-Aib-EGT-αMeF(2F)-TSDYSI-αMeL-LDKK((2-[2-(2-Amino-ethoxy)-ethoxy]-acetyl)2-(γGlu)-CO—(CH2)18—CO2H)AQ-Aib-EFI-(D-Glu)-YLIEGGPSSGAPPPS-NH2 (YXEGTXTSDYSIXLDKKAQXEFIXYLIEGGPSSGAPPPS; Aib, αMeF(2F), αMeL, D-Glu; lipidated K; amide; (2)..(2) Xaa at position 2 is Aib; (6)..(6) Xaa at position 6 is alpha-methyl-Phe(2F); (13)..(13) Xaa at position 13 is alpha-methyl-Leu; MOD_RES (17)..(17) Lys at position 17 is chemically modified by conjugation of the epsilon-amino group of the Lys side chain with (2-[2-(2-amino-ethoxy)-ethoxy]-acetyl)2-(gamma-Glu)-CO-(CH2)18- CO2H; (20)..(20) Xaa at position 20 is Aib; (24)..(24) Xaa at positi) [Peptide 212]
The “[hGIPR/hGLP1R] EC50 Ratio” value of the first is higher: 5.53 for the first, 5.41 for the second.

Going from “Y-Aib-EGT-αMeF(2F)-TSDYSI-αMeL-LDKK((2-[2-(2-Amino-ethoxy)-ethoxy]-acetyl)-(γGlu)-(2-[2-(2-Amino-ethoxy)-ethoxy]-acetyl)-CO—(CH2)18—CO2H)AQ-Aib-EFI-(D-Glu)-YLIEGGPSSGAPPPS-NH2 (YXEGTXTSDYSIXLDKKAQXEFIXYLIEGGPSSGAPPPS; Aib, αMeF(2F), αMeL, D-Glu; lipidated K; amide; (2)..(2) Xaa at position 2 is Aib; (6)..(6) Xaa at position 6 is alpha-methyl-Phe(2F); (13)..(13) Xaa at position 13 is alpha-methyl-Leu; MOD_RES (17)..(17) Lys at position 17 is chemically modified by conjugation of the epsilon-amino group of the Lys side chain with (2-[2-(2-Amino-ethoxy)-ethoxy]-acetyl)-(gamma-Glu)-(2-[2-(2-Amino- ethoxy)-ethoxy]-acetyl)-CO-(CH2)18-CO2H; (20)..(20) Xaa at positi) [Peptide 211]” to “Y-Aib-EGT-αMeF(2F)-TSDYSILLD-Orn-K((2-[2-(2-Amino-ethoxy)-ethoxy]-acetyl)2-(γGlu)-CO—(CH2)16—CO2H)AQ-Aib-EFI-(D-Glu)-YLIEGGPSSGAPPPS-NH2 (YXEGTXTSDYSILLDXKAQXEFIXYLIEGGPSSGAPPPS; Aib, Orn, αMeF(2F), lipidated Lys, D-Glu, amide; (2)..(2) Xaa at position 2 is Aib; (6)..(6) Xaa at position 6 is alpha-methyl-Phe(2F); (16)..(16) Xaa at position 16 is Orn; MOD_RES (17)..(17) Lys at position 17 is chemically modified by conjugation of the epsilon-amino group of the Lys side chain with (2-[2-(2-amino-ethoxy)-ethoxy]-acetyl)2-(gamma-Glu)-CO-(CH2)16- CO2H; (20)..(20) Xaa at position 20 is Aib; (24)..(24) Xaa at position 24 is D-Gl) [Peptide 248]”, the “[hGIPR/hGLP1R] EC50 Ratio” value rises from 3.59 to 6.35.

In the case of “Y-Aib-EGT-αMeF(2F)-TSDYSILLDEK((2-[2-(2-Amino-ethoxy)-ethoxy]-acetyl)2-(γGlu)-CO—(CH2)18—CO2H)AQ-Aib-EFI-(D-Glu)-YLIEGGPSSGAPPPS-NH2 (YXEGTXTSDYSILLDEKAQXEFIXYLIEGGPSSGAPPPS; Aib, αMeF(2F), D-Glu; lipidated K; amide; (2)..(2) Xaa at position 2 is Aib; (6)..(6) Xaa at position 6 is alpha-methyl-Phe(2F); MOD_RES (17)..(17) Lys at position 17 is chemically modified by conjugation of the epsilon-amino group of the Lys side chain with (2-[2-(2-amino-ethoxy)-ethoxy]-acetyl)2-(gamma-Glu)-CO-(CH2)18- CO2H; (20)..(20) Xaa at position 20 is Aib; (24)..(24) Xaa at position 24 is D-Glu; MOD_RES (39)..(39) Ser at position) [Peptide 226]”, the “[hGIPR/hGLP1R] EC50 Ratio” value is reported as 3.42.
